The target of experiment [1] is T1, full-length, biotinylated, human CD20 (Acro Biosystems) (human, UniProt P11836 1-297, biotinylated (site not stated)).
T1 construct: mature; No construct limits or tags are stated for the bought reagent; also called CD20 antigen
T1 sequence (looked up): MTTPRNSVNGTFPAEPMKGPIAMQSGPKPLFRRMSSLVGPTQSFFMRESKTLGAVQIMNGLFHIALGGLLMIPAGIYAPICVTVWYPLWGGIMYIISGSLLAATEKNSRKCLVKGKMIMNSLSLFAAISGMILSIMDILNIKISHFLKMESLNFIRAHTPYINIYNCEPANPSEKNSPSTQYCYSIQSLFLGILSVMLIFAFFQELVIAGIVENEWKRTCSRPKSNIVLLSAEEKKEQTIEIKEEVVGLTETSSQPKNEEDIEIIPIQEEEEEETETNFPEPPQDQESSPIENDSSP
As to the kind of experiment: BLI (Octet RED96e), biotinylated CD20 on biosensor, antibody at 50 nM. For orientation: Biolayer interferometry detects binding as a change in optical thickness at a sensor tip.

Experiment [2] deals with T1, full-length, biotinylated, human CD20 …. Kind of experiment: BLI (Octet RED96e), biotinylated CD20 on biosensor, antibody at 100 nM.
Experiment [3] shares this target. As to the kind of experiment: BLI (Octet RED96e), biotinylated CD20 on biosensor, antibody at 25 nM.

One molecule from patent US20250313646A1 (AUGMENT BIOLOGICS, published 2025) can be followed below.

As usually defined, the Kd is the equilibrium constant for the complex coming apart. A lower Kd goes with higher affinity.

B1: wildtype Rituximab (antibody)
chain 1: not shown
chain 2: QIVLSQSPAILSASPGEKVTMTCRASSSVSYIHWFQQKPGSSPKPWIYATSNLASGVPVRFSGSGSGTSYSLTISRVEAEDAATYYCQQWTSNPPTFGGGTKLEIKRTVAAPSVFIFPPSDEQLKSGTASVVCLLNNFYPREAKVQWKVDNALQSGNSQESVTEQDSKDSTYSLSSTLTLSKADYEKHKVYACEVTHQGLSSPVTKSFNRGEC
Take B1: the results for the Kd in experiment [1], in experiment [2] and in experiment [3] were 169 pM, 169 pM and 171 pM, respectively.
